The record followed here is paper PMC12578638.

The target of experiment [1] is biotinylated pDPEP1-Avi (pig DPEP1 residues 17-385) (pig (Sus scrofa)) (UniProt P22412). Briefly: BLI. Background: BLI is a label-free optical method that tracks binding on a fibre tip over time.
In experiment [2] the target is hDPEP1-Avi (human DPEP1 residues 17-385) (human) (UniProt P16444). The experiment is described as follows: BLI.
Sequence of UniProt P16444 (P16444 17-385): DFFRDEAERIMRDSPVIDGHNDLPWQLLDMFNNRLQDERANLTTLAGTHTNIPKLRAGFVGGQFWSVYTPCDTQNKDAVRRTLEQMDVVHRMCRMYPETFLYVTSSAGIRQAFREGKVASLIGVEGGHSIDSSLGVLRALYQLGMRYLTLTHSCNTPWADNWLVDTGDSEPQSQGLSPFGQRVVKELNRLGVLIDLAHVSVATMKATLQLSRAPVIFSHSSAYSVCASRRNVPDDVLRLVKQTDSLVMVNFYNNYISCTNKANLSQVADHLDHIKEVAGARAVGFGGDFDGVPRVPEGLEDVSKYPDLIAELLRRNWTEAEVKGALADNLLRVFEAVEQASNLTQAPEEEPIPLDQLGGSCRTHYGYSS

Sequence of UniProt P22412 (P22412 17-385): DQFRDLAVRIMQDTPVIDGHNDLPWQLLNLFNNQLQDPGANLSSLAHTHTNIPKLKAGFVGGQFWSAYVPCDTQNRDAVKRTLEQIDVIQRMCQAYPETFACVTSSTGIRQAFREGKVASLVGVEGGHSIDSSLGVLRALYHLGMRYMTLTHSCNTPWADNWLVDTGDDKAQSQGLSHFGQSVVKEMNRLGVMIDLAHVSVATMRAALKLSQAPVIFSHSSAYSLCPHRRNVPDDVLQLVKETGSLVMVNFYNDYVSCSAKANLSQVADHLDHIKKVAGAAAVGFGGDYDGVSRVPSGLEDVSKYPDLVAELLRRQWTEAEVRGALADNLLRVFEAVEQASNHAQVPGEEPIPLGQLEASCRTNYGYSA

In the case of “PHEV spike RBD (residues 327-605), from Expi293F cells (domain or fragment)”, the equilibrium dissociation constant (Kd) – broadly, a measure of binding affinity in units of concentration – was found to be 1.5 µM in experiment [1] and 2.99 µM in experiment [2].
